Literature values as cited in PMC3101942.

Target: tissue factor (Homo sapiens) (UniProt P13726)
Sequence of UniProt P13726 (P13726 33-251): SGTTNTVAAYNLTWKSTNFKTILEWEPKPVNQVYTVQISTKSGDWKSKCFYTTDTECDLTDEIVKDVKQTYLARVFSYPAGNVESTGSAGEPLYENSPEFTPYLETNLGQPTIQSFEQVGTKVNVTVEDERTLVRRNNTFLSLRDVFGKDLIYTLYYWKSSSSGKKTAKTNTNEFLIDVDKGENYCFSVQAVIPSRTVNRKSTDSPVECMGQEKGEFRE

Kd: 1 pM
Substance: factor VII (from UniProt P08709)
